B1: Rad26 (wild type) (enzyme, S. cerevisiae)
chain: MEDKEQQDNAKLENNESLKDLGVNVLSQSSLEEKIANDVTNFSNLQSLQQEETRLERSKTALQRYVNKKNHLTRKLNNTTRISVKQNLRDQIKNLQSDDIERVLKDIDDIQSRIKELKEQVDQGAENKGSKEGLQRPGETEKEFLIRTGKITAFGHKAGFSLDTANREYAKNDEQKDEDFEMATEQMVENLTDEDDNLSDQDYQMSGKESEDDEEEENDDKILKELEDLRFRGQPGEAKDDGDELYYQERLKKWVKQRSCGSQRSSDLPEWRRPHPNIPDAKLNSQFKIPGEIYSLLFNYQKTCVQWLYELYQQNCGGIIGDEMGLGKTIQVIAFIAALHHSGLLTGPVLIVCPATVMKQWCNEFQHWWPPLRTVILHSMGSGMASDQKFKMDENDLENLIMNSKPSDFSYEDWKNSTRTKKALESSYHLDKLIDKVVTDGHILITTYVGLRIHSDKLLKVKWQYAVLDEGHKIRNPDSEISLTCKKLKTHNRIILSGTPIQNNLTELWSLFDFIFPGKLGTLPVFQQQFVIPINIGGYANATNIQVQTGYKCAVALRDLISPYLLRRVKADVAKDLPQKKEMVLFCKLTKYQRSKYLEFLHSSDLNQIQNGKRNVLFGIDILRKICNHPDLLDRDTKRHNPDYGDPKRSGKMQVVKQLLLLWHKQGYKALLFTQSRQMLDILEEFISTKDPDLSHLNYLRMDGTTNIKGRQSLVDRFNNESFDVFLLTTRVGGLGVNLTGANRIIIFDPDWNPSTDMQARERAWRIGQKREVSIYRLMVGGSIEEKIYHRQIFKQFLTNRILTDPKQKRFFKIHELHDLFSLGGENGYSTEELNEEVQKHTENLKNSKSEESDDFEQLVNLSGVSKLESFYNGKEKKENSKTEDDRLIEGLLGGESNLETVMSHDSVVNSHAGSSSSNIITKEASRVAIEAVNALRKSRKKITKQYEIGTPTWTGRFGKAGKIRKRDPLKNKLTGSAAILGNITKSQKEASKEARQENYDDGITFARSKEINSNTKTLENIRAYLQKQNNFFSSSVSILNSIGVSLSDKEDVIKVRALLKTIAQFDKERKGWVLDEEFRNNNAS
notes: Rad26, S. cerevisiae ortholog of human CSB, Swi2/Snf2 family ATPase; also called Rad26(WT); yeast ortholog of CSB; source: E. coli Rosetta 2(DE3), purified (Ni-NTA agarose, Hi-Trap Heparin HP, Superdex 200)

Legend:
[1] = biological target: T1, Rpb2 subunit of S. cerevisiae RNA polymerase II (S. cerevisiae, UniProt P08518 1-1224); test: cryo-EM structure; Pol II(CPD)-Rad26 with 10-subunit Pol II lacking Rpb4/7, CPD lesion scaffold; 4.7 A; conditions: both partners purified
T1 construct: Rpb2, second largest subunit of S. cerevisiae RNA polymerase II, within the assembled polymerase; Seen only as a subunit of Pol II in the structures
T1 sequence (P08518 whole entry): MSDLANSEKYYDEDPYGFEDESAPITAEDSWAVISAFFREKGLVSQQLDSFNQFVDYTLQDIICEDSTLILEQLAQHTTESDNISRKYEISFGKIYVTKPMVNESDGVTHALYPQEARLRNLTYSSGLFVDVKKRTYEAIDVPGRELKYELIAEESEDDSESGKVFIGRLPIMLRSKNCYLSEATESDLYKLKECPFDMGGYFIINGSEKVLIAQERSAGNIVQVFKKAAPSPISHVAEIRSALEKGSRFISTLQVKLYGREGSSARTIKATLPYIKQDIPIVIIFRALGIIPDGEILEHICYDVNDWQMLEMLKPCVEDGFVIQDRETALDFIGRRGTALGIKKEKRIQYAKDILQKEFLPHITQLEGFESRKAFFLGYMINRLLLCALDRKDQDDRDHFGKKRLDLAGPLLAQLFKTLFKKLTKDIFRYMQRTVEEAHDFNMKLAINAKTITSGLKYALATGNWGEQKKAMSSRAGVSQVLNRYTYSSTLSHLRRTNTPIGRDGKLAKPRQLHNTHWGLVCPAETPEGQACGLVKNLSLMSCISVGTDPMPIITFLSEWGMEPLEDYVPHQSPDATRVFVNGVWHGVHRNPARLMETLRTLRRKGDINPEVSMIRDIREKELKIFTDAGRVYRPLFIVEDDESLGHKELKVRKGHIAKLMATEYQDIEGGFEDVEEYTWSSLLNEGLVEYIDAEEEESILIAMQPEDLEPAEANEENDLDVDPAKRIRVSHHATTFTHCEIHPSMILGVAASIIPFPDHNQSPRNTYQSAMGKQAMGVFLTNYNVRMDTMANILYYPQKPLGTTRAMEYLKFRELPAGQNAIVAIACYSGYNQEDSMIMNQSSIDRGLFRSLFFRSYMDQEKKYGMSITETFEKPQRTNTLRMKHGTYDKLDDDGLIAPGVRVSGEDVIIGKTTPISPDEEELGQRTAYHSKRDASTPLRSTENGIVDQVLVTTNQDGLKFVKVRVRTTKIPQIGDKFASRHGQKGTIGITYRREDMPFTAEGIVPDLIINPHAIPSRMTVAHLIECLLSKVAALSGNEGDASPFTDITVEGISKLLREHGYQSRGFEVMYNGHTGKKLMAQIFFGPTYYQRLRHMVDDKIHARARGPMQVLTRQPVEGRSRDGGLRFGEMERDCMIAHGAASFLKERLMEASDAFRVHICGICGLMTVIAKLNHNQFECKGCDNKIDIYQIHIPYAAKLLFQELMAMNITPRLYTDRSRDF

[2] = biological target: T2, Rpb1 subunit of S. cerevisiae RNA polymerase II (S. cerevisiae, UniProt P04050 1-1733); test: as above; conditions: both partners purified
T2 construct: Rpb1, largest subunit of S. cerevisiae RNA polymerase II, within the assembled polymerase; Seen only as a subunit of Pol II in the structures
T2 sequence (P04050 whole entry): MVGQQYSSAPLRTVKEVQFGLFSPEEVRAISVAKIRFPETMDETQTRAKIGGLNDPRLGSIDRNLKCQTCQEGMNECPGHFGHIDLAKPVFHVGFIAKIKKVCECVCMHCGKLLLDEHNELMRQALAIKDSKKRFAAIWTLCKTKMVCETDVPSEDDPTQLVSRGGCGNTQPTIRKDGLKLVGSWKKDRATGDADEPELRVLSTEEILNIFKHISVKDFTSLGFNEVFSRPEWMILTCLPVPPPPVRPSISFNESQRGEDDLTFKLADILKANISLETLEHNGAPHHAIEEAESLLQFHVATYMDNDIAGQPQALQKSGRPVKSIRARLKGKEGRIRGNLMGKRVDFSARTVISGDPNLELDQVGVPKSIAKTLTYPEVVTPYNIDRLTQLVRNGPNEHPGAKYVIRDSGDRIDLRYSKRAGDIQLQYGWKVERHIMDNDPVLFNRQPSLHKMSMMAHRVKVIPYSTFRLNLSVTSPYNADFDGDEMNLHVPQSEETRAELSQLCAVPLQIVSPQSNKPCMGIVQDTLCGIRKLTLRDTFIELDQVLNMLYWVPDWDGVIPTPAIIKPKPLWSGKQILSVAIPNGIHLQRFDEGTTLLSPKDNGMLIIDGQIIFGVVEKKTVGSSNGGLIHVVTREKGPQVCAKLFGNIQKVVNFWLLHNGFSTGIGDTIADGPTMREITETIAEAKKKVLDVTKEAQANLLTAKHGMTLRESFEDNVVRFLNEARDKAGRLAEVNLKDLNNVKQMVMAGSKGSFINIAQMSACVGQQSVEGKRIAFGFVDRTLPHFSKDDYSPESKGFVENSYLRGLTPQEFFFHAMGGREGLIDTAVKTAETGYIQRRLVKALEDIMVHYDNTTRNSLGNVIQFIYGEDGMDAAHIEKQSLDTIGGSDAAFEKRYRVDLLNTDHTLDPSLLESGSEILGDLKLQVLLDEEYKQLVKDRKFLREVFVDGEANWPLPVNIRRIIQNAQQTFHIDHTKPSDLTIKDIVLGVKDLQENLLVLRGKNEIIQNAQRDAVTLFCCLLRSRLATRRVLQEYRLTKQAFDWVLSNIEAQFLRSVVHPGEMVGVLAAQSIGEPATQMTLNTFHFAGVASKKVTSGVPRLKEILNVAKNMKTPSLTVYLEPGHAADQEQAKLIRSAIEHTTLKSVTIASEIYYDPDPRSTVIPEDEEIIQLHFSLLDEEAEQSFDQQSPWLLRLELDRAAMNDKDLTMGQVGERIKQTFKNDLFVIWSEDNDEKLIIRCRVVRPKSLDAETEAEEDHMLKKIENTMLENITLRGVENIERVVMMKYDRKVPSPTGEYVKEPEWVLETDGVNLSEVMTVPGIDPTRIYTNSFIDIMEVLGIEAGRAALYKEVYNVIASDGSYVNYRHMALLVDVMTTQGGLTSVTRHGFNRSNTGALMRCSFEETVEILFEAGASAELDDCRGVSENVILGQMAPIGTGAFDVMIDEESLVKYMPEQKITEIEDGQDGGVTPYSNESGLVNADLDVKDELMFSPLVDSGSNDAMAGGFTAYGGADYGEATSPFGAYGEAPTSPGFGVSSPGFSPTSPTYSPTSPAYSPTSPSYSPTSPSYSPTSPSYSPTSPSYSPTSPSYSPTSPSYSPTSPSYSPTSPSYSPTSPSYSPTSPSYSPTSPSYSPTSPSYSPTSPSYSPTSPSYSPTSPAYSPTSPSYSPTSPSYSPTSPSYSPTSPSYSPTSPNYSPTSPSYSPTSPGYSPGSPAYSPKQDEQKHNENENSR

[3] = biological target: S. cerevisiae 12-subunit RNA polymerase II (S. cerevisiae) (UniProt P04050); test: mass photometry; 12-subunit CPD-arrested Pol II complex (EC, on DNA/RNA scaffold) mixed with an equimolar amount of Rad26, diluted to 2, 5, 15 and 20 nM, with additional Elf1 (final 500 nM), incubated 20 min; Kd from particle counts, 12 reads
[4] = biological target: S. cerevisiae 12-subunit RNA polymerase II (S. cerevisiae) (UniProt P04050); test: mass photometry; 12-subunit CPD-arrested Pol II complex (EC, on DNA/RNA scaffold) mixed with an equimolar amount of Rad26, diluted to 5, 10, 15 and 25 nM, incubated 20 min; no Elf1; Kd from particle counts, 12 reads
Rad26 (wild type) = biological target: B1; test: cryo-EM structure; Pol II(CPD)-Rad26-Elf1 (Closed state): Elf1 incubated with the Pol II(CPD)-Rad26 complex; 1 uM Pol II, 2 uM Rad26, 1.1 uM scaffold, 5 uM Elf1; 3.1 A; conditions: both partners purified

| binding result [1] | binding result [2] | Kd [3] [nM] | Kd [4] [nM] | binding result (Rad26 (wild type)) | Binder |
| --- | --- | --- | --- | --- | --- |
| binds | binds | 9 | 23 | – | B1 |
| – | – | – | – | binds | Rpb4/7 heterodimer of S. cerevisiae RNA polymerase II (complex, Rpb4 subunit of S. cerevisiae RNA polymerase II; Rpb7 subunit of S. cerevisiae RNA polymerase II; In the structures it stood assembled into 12-subunit Pol II; also called Pol II stalk) chain 1: MNVSTSTFQTRRRRLKKVEEEENAATLQLGQEFQLKQINHQGEEEELIALNLSEARLVIKEALVERRRAFKRSQKKHKKKHLKHENANDETTAVEDEDDDLDEDDVNADDDDFMHSETREKELESIDVLLEQTTGGNNKDLKNTMQYLTNFSRFRDQETVGAVIQLLKSTGLHPFEVAQLGSLACDTADEAKTLIPSLNNKISDDELERILKELSNLETLY chain 2: MFFIKDLSLNITLHPSFFGPRMKQYLKTKLLEEVEGSCTGKFGYILCVLDYDNIDIQRGRILPTDGSAEFNVKYRAVVFKPFKGEVVDGTVVSCSQHGFEVQVGPMKVFVTKHLMPQDLTFNAGSNPPSYQSSEDVITIKSRIRVKIEGCISQVSSIHAIGSIKEDYLGAI |

From publication PMC10801861, “Elf1 promotes Rad26’s interaction with lesion-arrested Pol II for transcription-coupled repair” (Proceedings of the National Academy of Sciences of the …, 2024)
